Experiments:
hPDGFRb.mmh (human) [1] = biological target: hPDGFRb.mmh (human) (UniProt P09619); assay: SPR, mAb captured, 25 C
human PDGFRb.hFc (human) [2] = assay: SPR, mAb captured, 25 C
[3] = biological target: Macaca fascicularis PDGFRb.mmh (Macaca fascicularis); assay: SPR, mAb captured, 25 C
hPDGFRb.mmh (human) [4] = biological target: hPDGFRb.mmh (human) (UniProt P09619); assay: Octet BLI cross-competition, 25 C; hPDGFRb.mmh on anti-Penta-His tips pre-saturated with mAb-1 H4H3107S (row 7)
hPDGFRb.mmh (human) [5] = biological target: hPDGFRb.mmh (human) (UniProt P09619); assay: Octet BLI cross-competition, 25 C; hPDGFRb.mmh on anti-Penta-His tips pre-saturated with mAb-1 H4H3305N (row 8)
hPDGFRb.mmh (human) [6] = biological target: hPDGFRb.mmh (human) (UniProt P09619); assay: blocking ELISA, biot-hPDGFRb.mmh to coated PDGF-BB
[7] = biological target: full length human PDGFR-beta on HEK293 cells (human) (UniProt P09619); assay: cell-based or functional assay
full length human PDGFR-beta on HEK293 cells (human), sequence (P09619 33-1106 limits assumed): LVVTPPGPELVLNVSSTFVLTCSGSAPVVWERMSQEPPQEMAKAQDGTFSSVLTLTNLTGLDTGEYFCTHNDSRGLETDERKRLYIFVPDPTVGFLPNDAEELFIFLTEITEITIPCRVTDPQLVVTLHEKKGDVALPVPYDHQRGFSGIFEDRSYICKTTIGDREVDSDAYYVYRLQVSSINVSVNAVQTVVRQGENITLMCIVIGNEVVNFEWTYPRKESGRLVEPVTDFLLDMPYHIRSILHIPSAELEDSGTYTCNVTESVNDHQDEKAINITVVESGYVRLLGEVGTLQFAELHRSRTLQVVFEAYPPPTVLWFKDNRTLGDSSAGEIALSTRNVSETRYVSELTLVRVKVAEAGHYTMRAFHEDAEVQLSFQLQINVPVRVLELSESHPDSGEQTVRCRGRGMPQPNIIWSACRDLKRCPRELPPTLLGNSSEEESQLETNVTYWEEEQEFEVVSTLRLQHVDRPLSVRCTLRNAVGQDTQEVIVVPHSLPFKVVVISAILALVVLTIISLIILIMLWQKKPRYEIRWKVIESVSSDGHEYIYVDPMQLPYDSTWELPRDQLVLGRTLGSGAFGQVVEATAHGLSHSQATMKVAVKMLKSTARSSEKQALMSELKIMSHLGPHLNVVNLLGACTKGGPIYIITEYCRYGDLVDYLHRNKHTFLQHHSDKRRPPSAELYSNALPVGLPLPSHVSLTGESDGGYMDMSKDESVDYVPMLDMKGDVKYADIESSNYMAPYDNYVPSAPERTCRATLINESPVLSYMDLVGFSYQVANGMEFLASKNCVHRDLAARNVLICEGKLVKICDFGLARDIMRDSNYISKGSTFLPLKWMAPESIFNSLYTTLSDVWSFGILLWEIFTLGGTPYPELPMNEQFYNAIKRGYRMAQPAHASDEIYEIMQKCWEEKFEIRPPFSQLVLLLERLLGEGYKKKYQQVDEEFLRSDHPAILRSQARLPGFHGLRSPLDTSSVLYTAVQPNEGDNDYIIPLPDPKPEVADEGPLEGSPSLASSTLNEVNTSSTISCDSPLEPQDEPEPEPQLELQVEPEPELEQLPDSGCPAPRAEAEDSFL

hPDGFRb.mmh (human) [8] = biological target: hPDGFRb.mmh (human) (UniProt P09619); assay: Octet BLI cross-competition, 25 C; hPDGFRb.mmh on anti-Penta-His tips pre-saturated with mAb-1 H4H3099S (row 6)
hPDGFRb.mmh (human) [9] = biological target: hPDGFRb.mmh (human) (UniProt P09619); assay: SPR, mAb captured, 37 C
human PDGFRb.hFc (human) [10] = assay: SPR, mAb captured, 37 C
[11] = biological target: Macaca fascicularis PDGFRb.mmh (Macaca fascicularis); assay: SPR, mAb captured, 37 C
hPDGFRb.mmh (human) [12] = biological target: hPDGFRb.mmh (human) (UniProt P09619); assay: blocking ELISA, biot-hPDGFRb.mmh to coated PDGF-BB; average of three experiments
hPDGFRb.mmh (human) [13] = biological target: hPDGFRb.mmh (human) (UniProt P09619); assay: Octet BLI cross-competition, 25 C; hPDGFRb.mmh on anti-Penta-His tips pre-saturated with mAb-1 H4H3310N (row 9)
hPDGFRb.mmh (human) [14] = biological target: hPDGFRb.mmh (human) (UniProt P09619); assay: Octet BLI cross-competition, 25 C; hPDGFRb.mmh on anti-Penta-His tips pre-saturated with mAb-1 Control I (row 1); self-competition

Macaca fascicularis PDGFRb.mmh (Macaca fascicularis), sequence (chain, as listed by the source): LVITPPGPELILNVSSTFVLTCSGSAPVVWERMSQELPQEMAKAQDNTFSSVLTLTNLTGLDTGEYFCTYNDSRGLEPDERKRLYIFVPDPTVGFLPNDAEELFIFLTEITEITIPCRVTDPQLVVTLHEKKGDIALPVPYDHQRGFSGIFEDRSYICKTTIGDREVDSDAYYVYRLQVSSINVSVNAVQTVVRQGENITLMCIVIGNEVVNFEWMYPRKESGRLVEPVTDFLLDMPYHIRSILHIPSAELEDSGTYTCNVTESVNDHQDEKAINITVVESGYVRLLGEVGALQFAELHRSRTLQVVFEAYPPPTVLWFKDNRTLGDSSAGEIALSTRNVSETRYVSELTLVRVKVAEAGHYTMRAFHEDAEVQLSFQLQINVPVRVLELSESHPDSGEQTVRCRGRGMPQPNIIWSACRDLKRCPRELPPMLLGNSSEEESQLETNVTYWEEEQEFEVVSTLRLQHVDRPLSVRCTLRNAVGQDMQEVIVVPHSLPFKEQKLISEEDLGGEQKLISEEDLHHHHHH
Control I (antibody), sequence (VH): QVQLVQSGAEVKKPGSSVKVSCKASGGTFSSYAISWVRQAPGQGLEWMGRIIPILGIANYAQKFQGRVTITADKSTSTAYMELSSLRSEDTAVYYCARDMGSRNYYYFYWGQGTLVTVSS
Control I (antibody), sequence (VL): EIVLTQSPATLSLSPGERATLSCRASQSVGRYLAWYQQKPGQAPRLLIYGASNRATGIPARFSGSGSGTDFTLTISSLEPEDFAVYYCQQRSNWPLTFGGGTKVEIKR
hPDGFRb.mmh (human), sequence (P09619 other isoform, or with tags, fused parts or gaps): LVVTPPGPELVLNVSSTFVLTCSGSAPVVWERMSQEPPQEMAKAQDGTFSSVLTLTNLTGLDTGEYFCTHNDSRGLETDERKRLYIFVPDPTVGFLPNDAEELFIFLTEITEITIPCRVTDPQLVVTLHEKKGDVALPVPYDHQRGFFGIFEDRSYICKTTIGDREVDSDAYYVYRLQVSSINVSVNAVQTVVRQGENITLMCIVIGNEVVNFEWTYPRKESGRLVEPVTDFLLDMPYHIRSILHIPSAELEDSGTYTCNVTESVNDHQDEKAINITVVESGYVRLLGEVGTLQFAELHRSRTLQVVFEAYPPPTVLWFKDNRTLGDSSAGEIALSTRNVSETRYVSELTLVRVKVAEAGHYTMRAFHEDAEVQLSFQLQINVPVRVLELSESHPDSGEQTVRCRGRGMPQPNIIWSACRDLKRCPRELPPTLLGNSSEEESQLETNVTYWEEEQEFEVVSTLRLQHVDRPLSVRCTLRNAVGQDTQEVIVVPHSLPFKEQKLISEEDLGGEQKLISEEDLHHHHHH

In the case of Control I (antibody), the Kd (hPDGFRb.mmh (human) [1]) is reported as 12.6 nM, the koff (hPDGFRb.mmh (human) [1]) is reported as 0.00349 s⁻¹ and the kon (hPDGFRb.mmh (human) [1]) is reported as 277000 M⁻¹ s⁻¹. For the same substance, the t1/2 (hPDGFRb.mmh (human) [1]) was 3 min, the Kd (human PDGFRb.hFc (human) [2]) was 0.278 nM and the koff (human PDGFRb.hFc (human) [2]) was 0.00015 s⁻¹. For the same substance, the kon (human PDGFRb.hFc (human) [2]) was 539000 M⁻¹ s⁻¹, the t1/2 (human PDGFRb.hFc (human) [2]) was 77 min and the Kd [3] was 8.06 nM. For the same substance, the koff [3] was 0.00243 s⁻¹, the kon [3] was 302000 M⁻¹ s⁻¹ and the t1/2 [3] was 5 min. For the same substance, the Response of mAb-2 Binding to hPDGFRβ.mmh Pre-Complexed with mAb-1 (nm) (hPDGFRb.mmh (human) [4]) was 0.32 nm, the Response of mAb-2 Binding to hPDGFRβ.mmh Pre-Complexed with mAb-1 (nm) (hPDGFRb.mmh (human) [5]) was 0.34 nm and the % Maximum Blocking (hPDGFRb.mmh (human) [6]) was 92%. For the same substance, the IC50, blocking PDGF-BB (250 pM) activation, SRE-luciferase [7] was 1.8e-10 M, the IC50, blocking PDGF-DD (400 pM) activation, SRE-luciferase [7] was 1.8e-10 M and the Percent Internalization (Relative to Control I) [7] was 100%. The Response of mAb-2 Binding to hPDGFRβ.mmh Pre-Complexed with mAb-1 (nm) (hPDGFRb.mmh (human) [8]) was 0.34 nm, the Kd (hPDGFRb.mmh (human) [9]) was 32.5 nM and the koff (hPDGFRb.mmh (human) [9]) was 0.0146 s⁻¹. It also gave a kon (hPDGFRb.mmh (human) [9]) of 450000 M⁻¹ s⁻¹, a t1/2 (hPDGFRb.mmh (human) [9]) of 0.8 min and a Kd (human PDGFRb.hFc (human) [10]) of 0.27 nM. It also gave a koff (human PDGFRb.hFc (human) [10]) of 0.000217 s⁻¹, a kon (human PDGFRb.hFc (human) [10]) of 804000 M⁻¹ s⁻¹ and a t1/2 (human PDGFRb.hFc (human) [10]) of 53 min. It also gave a Kd [11] of 20.1 nM, a koff [11] of 0.00982 s⁻¹ and a kon [11] of 489000 M⁻¹ s⁻¹. The t1/2 [11] was 1.2 min, the IC50 (hPDGFRb.mmh (human) [12]) was 0.34 nM and the Response of mAb-2 Binding to hPDGFRβ.mmh Pre-Complexed with mAb-1 (nm) (hPDGFRb.mmh (human) [13]) was 0.33 nm. For the same substance, the Response of mAb-2 Binding to hPDGFRβ.mmh Pre-Complexed with mAb-1 (nm) (hPDGFRb.mmh (human) [14]) was 0.05 nm.

Work on Isotype Ctrl (antibody) yielded a Percent Internalization (Relative to Control I) [7] of 4%.
